Assay results as given in patent publication US20240317840A1.

Experiments:
[1] = molecular target: HBsAg of HBV genotype D, serotype ayw (Hepatitis B virus); test: cell-based or functional assay
[2] = molecular target: HBsAg AD serotype (Hepatitis B virus); test: SPR epitope binning; competitor (1st, saturating Ab): CR8087
[3] = molecular target: HBsAg AY serotype (Hepatitis B virus); test: as above
[4] = molecular target: HBsAg AD serotype (Hepatitis B virus); test: SPR epitope binning; competitor (1st, saturating Ab): NOV3540
[5] = molecular target: HBsAg AY serotype (Hepatitis B virus); test: as above
[6] = molecular target: HBsAg AD serotype (Hepatitis B virus); test: SPR epitope binning; competitor (1st, saturating Ab): NOV3832
[7] = molecular target: HBsAg AY serotype (Hepatitis B virus); test: as above
[8] = molecular target: HBsAg AD serotype (Hepatitis B virus); test: SPR epitope binning; competitor (1st, saturating Ab): NOV3841
[9] = molecular target: HBsAg AY serotype (Hepatitis B virus); test: as above
[10] = molecular target: HBsAg AD serotype (Hepatitis B virus); test: SPR epitope binning; competitor (1st, saturating Ab): NOV3842
[11] = molecular target: HBsAg AY serotype (Hepatitis B virus); test: as above
[12] = molecular target: HBsAg AD serotype (Hepatitis B virus); test: SPR epitope binning; competitor (1st, saturating Ab): HBC34 (self)
[13] = molecular target: HBsAg AY serotype (Hepatitis B virus); test: as above

| Substance | Virus neutralization EC50 [1] [nM] | binding of second antibody (% of its binding as first antibody) [2] | binding of second antibody (% of its binding as first antibody) [3] | binding of second antibody (% of its binding as first antibody) [4] | binding of second antibody (% of its binding as first antibody) [5] | binding of second antibody (% of its binding as first antibody) [6] | binding of second antibody (% of its binding as first antibody) [7] | binding of second antibody (% of its binding as first antibody) [8] | binding of second antibody (% of its binding as first antibody) [9] | binding of second antibody (% of its binding as first antibody) [10] | binding of second antibody (% of its binding as first antibody) [11] | binding of second antibody (% of its binding as first antibody) [12] | binding of second antibody (% of its binding as first antibody) [13] |
| --- | --- | --- | --- | --- | --- | --- | --- | --- | --- | --- | --- | --- | --- |
| Neg. Control (antibody) | > 500 |  |  |  |  |  |  |  |  |  |  |  |  |
| HBC34 (antibody) |  | 146 | 166 | 121 | 131 | 126 | 257 | 124 | 151 | 121 | 134 | 0 | 0 |
